Laboratory results reported in patent US20240139265A1 (published 2024).

Target: T1, HLA-B*08:01 class I complex (biotinylated heavy chain with beta2-microglobulin) (human)
T1 construct: Conditional HLA class I complex loaded with a UV-labile peptide that is exchanged for the test peptide
Assay: UV peptide exchange + HLA class I ELISA; % of Pos control peptide
Description: The exchange efficiency between the peptide of interest and Pos was analyzed using an HLA class I ELISA.
The UV control represented UV-irradiation of conditional HLA class I complex in the absence of a rescue peptide. […] The HLA class I ELISA is an enzyme immunoassay based on the detection of beta2-microglobulin (B2M) of (peptide-stabilized) HLA class I complexes. To this end streptavidin was bound onto polystyrene microtiter wells. […] Non-bound material was removed by washing. Subsequently, horseradish peroxidase (HRP)-conjugated antibody to human B2M was added. […] In the latter case B2M was removed during the washing step. After removal of non-bound HRP conjugate by washing, a substrate solution was added to the wells. A coloured product formed in proportion to the amount of intact HLA complex present in the samples. After the reaction was terminated by the addition of a stop solution, absorbance was measured in a microtiter plate reader.

## GVLRRLLCR (Synthetic 9-mer) [P37 9-mer neoantigen peptide GVLRRLLCR (TSTD1-F11R fusion)]
  exchange rate with Pos peptide: 3.3%

## CPMSRLRLA (Synthetic 9-mer) [P46 9-mer neoantigen peptide CPMSRLRLA (TP53 (R213D) frameshift)]
  exchange rate with Pos peptide: 14.5%

## YLRRQKRLK (Synthetic 9-mer) [P60 9-mer neoantigen peptide YLRRQKRLK (FOXA1.p.F266L missense)]
  exchange rate with Pos peptide: 10.2%

## HVPKILSGK (Synthetic 9-mer) [P58 9-mer neoantigen peptide HVPKILSGK (AR (Q903H) missense)]
  exchange rate with Pos peptide: 5.3%

## LLERNSFEV (Synthetic 9-mer) [P73 9-mer neoantigen peptide LLERNSFEV (TP53 (G266E) missense)]
  exchange rate with Pos peptide: 2.6%

## FLFLLLPLS (Synthetic 9-mer) [P87 9-mer neoantigen peptide FLFLLLPLS (AR-Intron splice variant)]
  exchange rate with Pos peptide: 3.1%

## RAKCKFSIL (Synthetic 9-mer) [P56 9-mer neoantigen peptide RAKCKFSIL (SPOP(F102C) missense)]
  exchange rate with Pos peptide: 38%

## CYLGRQKRF (Synthetic 9-mer) [P61 9-mer neoantigen peptide CYLGRQKRF (FOXA1.p.R261G missense)]
  exchange rate with Pos peptide: 3.6%

## RAVRRMNTF (Synthetic 9-mer) [P17 9-mer neoantigen peptide RAVRRMNTF (MSMB-NOCA4 fusion)]
  exchange rate with Pos peptide: 9%

## LMAQRLLLR (Synthetic 9-mer) [P97 9-mer neoantigen peptide LMAQRLLLR (FOXRED2-TXN2 fusion)]
  exchange rate with Pos peptide: 2.7%

## FPVGAEGTF (Synthetic 9-mer) [P27 9-mer neoantigen peptide FPVGAEGTF (FAM126B-ORC2 fusion)]
  exchange rate with Pos peptide: 6.4%

## IQYSCMGLM (Synthetic 9-mer) [P50 9-mer neoantigen peptide IQYSCMGLM (AR (W742C) missense)]
  exchange rate with Pos peptide: 4.7%

## IPVLTRWPL (Synthetic 9-mer) [P19 9-mer neoantigen peptide IPVLTRWPL (TMEM222-LOC644961 fusion)]
  exchange rate with Pos peptide: 14.5%

## QLIAMDSAI (Synthetic 9-mer) [P22 9-mer neoantigen peptide QLIAMDSAI (SLC45A3-ELK4 fusion)]
  exchange rate with Pos peptide: 3.9%

## IVWWCPMSR (Synthetic 9-mer) [P98 9-mer neoantigen peptide IVWWCPMSR (TP53 (R213D) frameshift)]
  exchange rate with Pos peptide: 2.4%

## NSKMALNSL (Synthetic 9-mer) [P35 9-mer neoantigen peptide NSKMALNSL (TMPRSS2-ERG fusion)]
  exchange rate with Pos peptide: 13.7%

## FFKRAAEGF (Synthetic 9-mer) [P77 9-mer neoantigen peptide FFKRAAEGF (AR-V3 splice variant)]
  exchange rate with Pos peptide: 3.4%

## NMVENGCYL (Synthetic 9-mer) [P59 9-mer neoantigen peptide NMVENGCYL (FOXA1 (F254V) missense)]
  exchange rate with Pos peptide: 5.5%

## STRRAVRRM (Synthetic 9-mer) [P16 9-mer neoantigen peptide STRRAVRRM (MSMB-NCOA4 fusion)]
  exchange rate with Pos peptide: 6.2%

## RVGNCKHLK (Synthetic 9-mer) [P82 9-mer neoantigen peptide RVGNCKHLK (AR-V7 splice variant)]
  exchange rate with Pos peptide: 1.4%
